Tests used:
[1] = target: T1, Human Arginase 1 (hArg1), trimeric (human, UniProt P05089); assay: enzyme inhibition kinetics; Thioarginine to thioornithine assay; 1 nM human or mouse arginase incubated 30 min at room temperature with fixed antibody concentrations, variable thioarginine; 50 mM Tris pH 7.5, 50 mM NaCl, 1 mM Mn chloride, 0.05% BSA; competitive inhibition model; settings: both partners purified
T1 construct: Human arginase 1, full-length, untagged; trimeric metalloenzyme, each monomer ~35 kDa; buffers contained MnCl2 (the SPR buffer contained 3 mM EDTA); also called trimeric hArg1; human Arg1; source: E. coli BL21 (DE3), purified (heat treatment, HiTrap-SP, Superdex 200)

[2] = target: T1, Human Arginase 1 (hArg1), trimeric; assay: cryo-EM structure; hArg1 and full-length mAb mixed at 3:1 molar ratio in 25 mM HEPES pH 7.4, 150 mM NaCl, 1.0 mM MnCl2, incubated 30 min; diluted to ~75 uM monomeric arginase, DDM added to the CMC; settings: both partners purified
mouse Arg1 = target: T2, mouse Arg1 (Mus musculus (Mouse)., UniProt Q61176); assay: enzyme inhibition kinetics; Thioarginine to thioornithine assay; 1 nM human or mouse arginase incubated 30 min at room temperature with fixed antibody concentrations, variable thioarginine; 50 mM Tris pH 7.5, 50 mM NaCl, 1 mM Mn chloride, 0.05% BSA; competitive inhibition model; settings: both partners purified
T2 construct: Mouse arginase 1; construct not described; also called mouse arginase

[3] = target: T1, Human Arginase 1 (hArg1), trimeric; assay: SPR; Antibody captured on an anti-mouse IgG or anti-human Fc surface (CM5 chip, Biacore T200 or 4000); human ARG1 injected, twofold dilutions from 100 nM; 10 mM HEPES, 150 mM NaCl, 0.05% P20, 3 mM EDTA, pH 7.4; 25 °C; 1:1 binding model; settings: both partners purified
[4] = target: T3, Monomeric hArg1 (Arg308 mutated to alanine) (Homo sapiens (Human)., UniProt P05089, Arg308 to an alanine residue); assay: as above; settings: both partners purified
T3 construct: Human arginase 1 with Arg308 at the monomer interface mutated to alanine, which gives a monomer; also called monomeric human ARG1

[5] = target: the molecule itself; assay: cryo-EM structure; hArg1 and full-length mAb mixed at 3:1 molar ratio in 25 mM HEPES pH 7.4, 150 mM NaCl, 1.0 mM MnCl2, incubated 30 min; diluted to ~75 uM monomeric arginase, DDM added to the CMC

T2 sequence (Q61176 whole entry): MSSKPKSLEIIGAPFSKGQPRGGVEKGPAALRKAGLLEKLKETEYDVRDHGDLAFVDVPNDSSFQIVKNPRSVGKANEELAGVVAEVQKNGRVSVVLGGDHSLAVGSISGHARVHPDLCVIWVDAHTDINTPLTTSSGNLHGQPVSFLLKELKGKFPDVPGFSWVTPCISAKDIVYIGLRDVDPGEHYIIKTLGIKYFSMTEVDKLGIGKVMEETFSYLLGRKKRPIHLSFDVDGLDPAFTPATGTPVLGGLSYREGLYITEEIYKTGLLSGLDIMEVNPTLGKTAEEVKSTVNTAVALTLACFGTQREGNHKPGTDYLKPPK

B1: mAb1 (antibody, V domains shown)
VH: QVQLVQSGAEVKKPGASVKVSCKASGYTFTNYGISWVRQAPGQGLEWMGWISAYNGNTNYAQKLQGRVTMTTDTSTSTAYMELRSLRSDDTAVYYCAREGAYGYRSPYHNWFDPWGQGTLVTVSS
VL: EIVMTQSPATLSLSPGERATLSCRASQSVSSYLAWYQQKPGQAPRLLIYDASNRATGIPARFSGSGSGTDFTLTISSLEPEDFAVYYCQQHSLLPRTFGGGTKVEIK
notes: Human heavy chain variable domain from yeast display; heavy chain of the Fab in PDB 7LEX and 7LEZ; Mouse IgG2a heavy chain constant region (backbone); Human light chain variable domain from yeast display; light chain of the Fab in PDB 7LEX and 7LEZ; Mouse kappa light chain constant region (mouse IgG2a/kappa backbone); Full-length mAb, human variable regions on a mouse IgG2a/kappa backbone; The Fc …
[1]
  Ki: 3.3 ± 0.3 nM

B2: mAb2 (antibody, V domains shown)
VH: QVQLVQSGAEVKKPGASVKVSCKASGYTFTNYGISWVRQAPGQGLEWMGWISAYNGNTNYAQKLQGRVTMTTDTSTSTAYMELRSLRSDDTAVYYCAREGAYGYRSPYHNWFDPWGQGTLVTVSS
VL: EIVMTQSPATLSLSPGERATLSCRASQSVSSYLAWYQQKPGQAPRLLIYDASNRATGIPARFSGSGSGTDFTLTISSLEPEDFAVYYCQQHSLLPRTFGGGTKVEIK
notes: Human heavy chain variable domain, identical to that of m3 (mAb1); heavy chain of the Fab in PDB 7LF0; Human light chain variable domain, identical to that of m3 (mAb1); light chain of the Fab in PDB 7LF0; Mouse kappa light chain constant region (mouse IgG1 D265A/kappa backbone); Full-length mAb; differs from mAb1 only in the constant domains; also called mAbs1-3 (member); source: ExpiCHO-S, …
[1]
  Ki: 5.3 ± 0.8 nM

B3: mAb5 (antibody, V domains shown)
VH: EVQLVESGGGVVRPGGSLRLSCAASGFTFDDYGMTWVRQAPGKGLEWVSGINWNGGSTGYADSVKGRFTISRDNAKNSLYLQMNSLRAEDTALYHCARDRRRGSYGSDAFDIWGQGTMVTVSS
VL: DIQMTQSPSSLSASVGDRVTITCRASQGISNYLAWYQQKPGKVPQLLISAASTLQSGVPSRFSGSGSGTDFTLTISSLQPEDVATYYCQKYNSAPRTFGQGTKVEIK
notes: Human heavy chain variable domain from a transgenic (Trianni) mouse immunization; heavy chain of the Fab in PDB 7LEY; Human light chain variable domain from a transgenic (Trianni) mouse immunization; light chain of the Fab in PDB 7LEY; Mouse kappa light chain constant region (mouse IgG1 D265A/kappa backbone); Full-length mAb, human variable regions on a mouse IgG1 D265A/kappa backbone; source: …
[2]
  binding result: binds
Mouse Arg1
  Ki: 25 ± 1.7 nM

B4: mAb4 (antibody, V domains shown)
VH: EVQLVQSGAEVKKPGASVKVSCKASGYTFTDYYMNWVRQAPGQGLEWIGVISPYNGGTTYNQKFKGKATLTVDKSTSTAYMELSSLRSEDTAVYYCVYDLYYFDYWGQGTLVTVSS
VL: EIVLTQSPATLSLSPGERATLSCRASQRISNDLHWYQQKPGQAPRLLIKYASQSISGIPSRFSGSGSGTDFTLTISSLEPEDFAVYYCQQSNSWPRTFGGGTKLEIK
[3]
  Kd: 0.56 nM
[4]
  Kd: 20 nM

B5: Human Arginase 1 (hArg1), trimeric (enzyme, UniProt P05089 1-322, looked up)
chain: MSAKSRTIGIIGAPFSKGQPRGGVEEGPTVLRKAGLLEKLKEQECDVKDYGDLPFADIPNDSPFQIVKNPRSVGKASEQLAGKVAEVKKNGRISLVLGGDHSLAIGSISGHARVHPDLGVIWVDAHTDINTPLTTTSGNLHGQPVSFLLKELKGKIPDVPGFSWVTPCISAKDIVYIGLRDVDPGEHYILKTLGIKYFSMTEVDRLGIGKVMEETLSYLLGRKKRPIHLSFDVDGLDPSFTPATGTPVVGGLTYREGLYITEEIYKTGLLSGLDIMEVNPSLGKTPEEVTRTVNTAVAITLACFGLAREGNHKPIDYLNPPK
notes: Human arginase 1, full-length, untagged; trimeric metalloenzyme, each monomer ~35 kDa; buffers contained MnCl2 (the SPR buffer contained 3 mM EDTA); also called trimeric hArg1; human Arg1; source: E. coli BL21 (DE3), purified (heat treatment, HiTrap-SP, Superdex 200)
[5]
  stoichiometry N: 3

Source: article PMC8322407 (Communications Biology, 2021)
